According to publication PMC2804849:
Blank lines part the entries; values can stand above or below the substance they belong to.

Assays:
SCF (Homo sapiens) = SCF (Homo sapiens) (UniProt Q13616); details: cited from earlier work
[1] = molecular target: Nedd8-conjugated RC^CFP (human) (UniProt P62877); test: FRET or BRET
[2] = molecular target: SCF holoenzyme (FRET experiment of Figure S2c) (human) (UniProt P62877); test: FRET or BRET
[3] = molecular target: Rbx1-Cul1-CFP complex (RC^CFP) (human) (UniProt P62877); test: FRET or BRET

Cdc34, sequence (P49427 whole entry): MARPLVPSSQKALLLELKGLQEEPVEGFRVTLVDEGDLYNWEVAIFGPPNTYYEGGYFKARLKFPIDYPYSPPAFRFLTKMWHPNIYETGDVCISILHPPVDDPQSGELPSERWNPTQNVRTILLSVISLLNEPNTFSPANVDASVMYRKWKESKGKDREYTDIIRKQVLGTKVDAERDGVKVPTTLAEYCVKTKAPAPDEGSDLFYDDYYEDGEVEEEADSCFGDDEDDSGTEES

Substance: Cdc34 (from UniProt P49427)
Kd (SCF (Homo sapiens)): 0.02 µM

fold change of the kinetic parameters against uncharged Cdc34 [1]: 2 fold
Substance: human Cdc34 charged with ubiquitin (Cdc34~Ub) (from UniProt Q712K3 1-238; P0CG48 1-76) (complex)

fold change of koff against RC^CFP heterodimer [2]: < 2 fold
Kd [3]: 0.074 µM
koff [3]: 35 s⁻¹
kon [3]: 4.7e+08 M⁻¹ s⁻¹
Substance: human Cdc34, WT, labelled with Lumio Green at the C-terminus (from UniProt Q712K3 1-238) (enzyme)
